Target: sarcomeric α-Actin (ACTC1) (mouse (endogenous in heart)) (UniProt P68033)
Test: co-IP; heart lysates of CTL and α-MHC-cre DKO mice, mouse anti-α-Actin, Protein A/G beads, Western blot, densitometry (n = 4)

fold change of ACTN co-precipitated with ACTC1, α-MHC-cre DKO hearts against CTL hearts: 0.63 fold
Substance: sarcomeric α-Actinin (ACTN) (from UniProt Q9JI91 1-894) (natural protein)

Reference: publication PMC8803338
